One molecule from patent US20150216933A1, “HEMATOPOIETIC STEM CELL GROWTH FACTOR” (DUKE UNIVERSITY, priority 2008, published 2015) can be followed below.

The test system of one assay is 34−KSL cells. As to the kind of experiment: Competitive repopulating assay at 4 weeks (Example 1). Type of assay: in vivo, mouse. Particulars: lineage repopulation in transplanted mice.
For assay [1], the system named is long-term repopulating HSCs. Briefly: Secondary competitive repopulating transplant assay. The class given is in vivo, mouse. On the procedure: Secondary competitive transplant assays were performed using whole BM harvested from primary CD45. 2^+ mice at 24 weeks following transplantation with either CD45. 1^+ BM 34^−KSL cells or the progeny of 34^−KSL cells following culture with TSF alone or TSF+PTN. Secondary recipient CD45. 2^+ C57Bl6 mice were irradiated with 950 cGy TBI and PB analysis of donor cell engraftment was performed at 12 weeks post-transplantation in secondary mice.
In order to confirm that PTN caused the amplification of long-term repopulating HSCs with serial repopulating capacity, secondary transplants were performed. Importantly, secondary CD45.

In the next assay the test system is BM 34−KSL cells. Briefly: Competitive repopulating unit (CRU) assay of 34−KSL cell progeny cultured with TSF or TSF+PTN (Example 2). The class given is in vivo, mouse. The method, then:
BM 34^−KSL cells were either isolated for injection into recipient animals, or placed into cultures containing TSF alone, TSF+PTN, TSF+HUBECs+goat IgG, or TSF+HUBECs+goat anti-PTN. Recipient C57BL6 animals (CD45. 2^+) received 950 cGy total body irradiation (TBI) and were then injected via tail vein with limiting doses of BM 34^−KSL cells or their progeny following culture. 1×10^5 host BM MNCs were co-injected-into recipient mice as competitor cells. Multilineage hematologic reconstitution was measured in the PB by flow cytometry over time post-transplant as previously described (Reya, et al, Nature 423:409-14 (2003), Salter et al, Blood 113:2104-7 (2009)). Animals were considered to be engrafted if donor CD45. 1^+ cells were present at ≧1% in the PB (Chute et al, Blood 100:4433-9 (2002), Chute et al, Blood 105: 576-83 (2005), (Chute et al, Proc Natl Acad Sci USA 103, 11707-12 (2006)). CRU estimates were performed using L-Calc software (Stem Cell Technologies) as previously described (Reya, et al, Nature 423:409-14 (2003), Chute et al, Blood 109:2365-72 (2007), Chute et al, Proc Natl Acad Sci USA 103, 11707-12 (2006)).
In order to determine if treatment with PTN could induce functional HSC expansion in culture, competitive repopulating unit (CRU) assays were performed using limiting dilutions of donor CD45. 1^+ BM 34^−KSL cells transplanted into lethally irradiated CD45. 2^+ C57Bl6 mice. Peripheral blood (PB) was collected from primary recipient mice at 4 weeks, 12 weeks and 24 weeks to assess the engraftment of donor CD45. 1^+ cells in the PB of recipient mice. […] 1^+ donor cell engraftment in the PB compared to mice transplanted with the identical dose of day 0 34^−KSL cells and mice transplanted with the progeny of 34^−KSL cells cultured with TSF alone (FIG. 6C, P=0.0008 and P=0.001, respectively). […] The PB engraftment of multilineage donor CD45. […] As expected, the CRU frequency within the progeny of 34^−KSL cells following culture with cytokines alone (TSF) was reduced to 1 in 58 cells (95% CI: 1/31 to 1/108). Conversely, the CRU frequency within the progeny of 34^−KSL cells cultured with TSF+PTN was 1 in 10 cells (95% CI: 1/5 to 1/20). Therefore, the addition of PTN induced a 4-fold increase in HSCs compared to input and a 6-fold increase compared to the progeny of TSF alone. […] 1^+ cell reconstitution at all time points through 24 weeks compared to mice transplanted with day 0 34^−KSL cells or their progeny following culture with TSF alone (FIG. 6F). This corresponded to an increased CRU frequency in the PTN-treated progeny compared to input 34^−KSL cells at all time points. […]

Assay [2] concerns BM stem and progenitor cells. Briefly: In vivo PTN study in mice irradiated with 700 cGy TBI. The conditions noted are these: 2 μg PTN intraperitoneally daily x 7 days, day +7. Details: species or system mouse. The method, then: Adult B6.SJL mice received a single fraction of 700 cGy TBI and were then treated either with PBS (saline) or 2 μg PTN intraperitoneally daily ×7 days (beginning 4 hours post irradiation). At day +7, the mice were sacrificed and total viable BM cells were quantified. Flow cytometric analysis was performed to estimate the percentage of BM KSL cells in each femur (Chute at al, Blood 109:2365-72 (2007), Salter et al, Blood 113:2104-7 (2009)). Colony forming cell (CFC) assays were performed using MethoCult M3434 media (Stem Cell Technologies, Vancouver, BC) as previously described (Chute et al, Blood 109:2365-72 (2007), Salter et al, Blood 113:2104-7 (2009)). Long-term cultureinitiating cell (LTC-IC) assays were performed as follows: Murine M2-10B4 (ATCC CRL-1972) BM stromal cells were plated in a 24 well dish and irradiated with 1500 cGy. Limiting dilutions (45,000, 90,000, and 180,000) of BM MNCs from irradiated mice that were treated with either PTN or PBS were added to the stromal cell layers and maintained in MyeloCult M5300 media (Stem Cell Technologies) with weekly half-medium changes for 4 weeks. At 4 weeks, the non-adherent and adherent cells (15,000 cells/dish) were collected and plated into 3×35 mm dishes (MethoCult, StemCell Technologies). After two weeks, hematopoietic colonies were counted and scored.
Since the addition of PTN was sufficient to induce HSC amplification in vitro a test was made as to whether administration of PTN could augment BM HSC regeneration in vivo following injury.

B1: PTN: Pleiotrophin, heparin binding growth factor; recombinant human PTN purchased from R&D systems (protein, UniProt P21246 33-168, looked up)
Pleiotrophin: GKKEKPEKKVKKSDCGEWQWSVCVPTSGDCGLGTREGTRTGAECKQTMKTQRCKIPCNWKKQFGAECKYQFQAWGECDLNTALKTRTGSLKRALHNAECQKTVTISKPCGKLTKPKPQAESKKKKKEGKKQEKMLD
Consider B1, for which, in the assay with 34−KSL cells, the “multilineage differentiation potential of HSCs” value is “did not alter the normal multilineage differentiation potential”. In addition, the “multilineage differentiation in secondary mice” value in assay [1] (12 weeks) is recorded as “normal multilineage differentiation”. In addition, the “CD45.1+ cell engraftment in secondary mice, fold higher vs 34−KSL cell group or TSF alone group” value in assay [1] (12 weeks post-transplant, BM harvested at 24 weeks from primary recipients) is listed as more than 10 fold. In addition, in the assay with BM 34−KSL cells (12 week CRU), the “increase in HSCs compared to input” value was determined as 4 fold and the “increase in HSCs compared to the progeny of TSF alone” value is listed as 6 fold. Besides, the “increase in CD45.1+ donor cell engraftment in the PB” value in the assay on BM 34−KSL cells (12 weeks post-transplant, vs day 0 34−KSL cells and progeny of TSF alone, 100 ng/mL PTN) is given as more than 10 fold. Also, in the assay on BM 34−KSL cells (24 weeks post-transplant), the “CRU frequency, fold increased compared to input 34−KSL cells” value was 4 fold. In assay [2], the “increase in BM colony forming cells (CFCs)” value is 2.9 fold, the “increase in long-term culture-initiating cells (LTC-ICs) / BM HSC content” value is on record as 11 fold, the “increase in primitive BM KSL cells compared to controls” value is recorded as 5.6 fold and the “increase in total BM cells compared to controls” value is on record as 2.3 fold.
